Measured values from article PMC3199388.
Read-outs that look alike come from different tables or passages of the source.

T1: Dcr1 C-terminal extended dsRBD (Schizosaccharomyces pombe, UniProt Q09884 1258-1358)
T1 sequence: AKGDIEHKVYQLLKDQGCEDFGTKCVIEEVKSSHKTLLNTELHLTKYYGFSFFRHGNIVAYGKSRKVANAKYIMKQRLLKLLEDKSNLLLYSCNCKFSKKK

T2: Dcr1 dsRBD K1265A (helix 1) (Schizosaccharomyces pombe, UniProt Q09884 1258-1358, K1265A)
T2 sequence: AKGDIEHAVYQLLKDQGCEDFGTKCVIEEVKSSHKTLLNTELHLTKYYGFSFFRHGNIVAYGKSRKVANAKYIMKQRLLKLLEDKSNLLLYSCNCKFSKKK

T3: Dcr1 dsRBD R1322A (loop 4) (Schizosaccharomyces pombe, UniProt Q09884 1258-1358, R1322A)
T3 sequence: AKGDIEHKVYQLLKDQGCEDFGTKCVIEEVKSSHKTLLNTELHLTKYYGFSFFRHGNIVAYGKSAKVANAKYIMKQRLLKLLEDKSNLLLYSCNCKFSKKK


Columns and labels:
Test in all cases: ITC
[1] = target: T1, Dcr1 C-terminal extended dsRBD
[2] = target: T2, Dcr1 dsRBD K1265A (helix 1)
[3] = target: T3, Dcr1 dsRBD R1322A (loop 4)
[4] = target: T1, Dcr1 C-terminal extended dsRBD; remark: listed apart in the source

Binder | Kd [1] [µM] | binding result [2] | binding result [3] | Kd [4] [µM]
dsDNA 24 bp (DNAfwd/DNArev) (dsDNA) DNA 1: GGGATCAATATGCTAAGCGATCCC DNA 2: GGGATCGCTTAGCATATTGATCCC | 1.5 | no binding | no binding | 
dsRNA 24 bp (RNAfwd/RNArev) (dsRNA) RNA 1: GGGAUCAAUAUGCUAAGCGAUCCC RNA 2: GGGAUCGCUUAGCAUAUUGAUCCC |  | no binding | no binding | 0.8
